From patent US11685791B2, “Antibody binding specifically to N-terminal region of lysyl-tRNA synthetase exposed on cell membrane” (Zymedi Co., Ltd., priority 2017, dated 2023)
Blank lines part the entries; values can stand above or below the molecule they belong to.

Tests used:
[1] = test system: pulmonary arterial hypertension (PAH) models; assay: Blood pressure and cardiac output in monocrotaline PAH model; format: in vivo, rat; settings: MCT + Sildenafil 25 mpk orally every day, 3 weeks
Method: After three weeks, the rats were anesthetized with isoflurane, and measured for blood flow and pressure by using a high-precision pneumatic measurement system (MPVS cardiovascular pressure and volume system, model name: MPVS Ultra, manufacturer: Millar Instruments). The right ventricular end-systolic pressure (RVESP), right ventricular end-diastolic pressure, left ventricular end-systolic pressure, left ventricular end-diastolic pressure were measured using an exclusive catheter (Mikro-Tip rat pressure catheter, manufacturer: Millar Instruments). The cardiac output was measured using a perivascular blood flow probe (Transonic Flow probes, manufacturer: Millar Instruments), and experimental method thereof was performed by the same method as disclosed in the following literature: Pacher P, Nagayama T, Mukhopadhyay P, Batkai S, Kass D A. Measurement of cardiac function using pressure-volume conductance catheter technique in mice and rats. Nat Protoc 2008; 3(9):1422-34.
The models of PAH, which is a disease having a close relation between immune cell invasion and pathological phenomena, were treated with N3 IgG antibody (1 mpk or 10 mpk) for 3 weeks (i.v., twice a week), and then measured for right ventricular end-systolic pressure (RVESP), right ventricular end-diastolic pressure (RVEDP), left ventricular end-systolic pressure (LVESP), left ventricular end-diastolic pressure (LVEDP), and cardiac output (CO).

[2] = test system: pulmonary arterial hypertension (PAH) models; assay: Echocardiography in PAH model; format: in vivo, rat; settings: MCT PAH rats, five animals per group
Description: (§3) To induce PAH in seven-week-old SD rats (Orient Bio), 60 mpk of monocrotaline (MCT) was subcutaneously injected. […] All antibodies were i.v. injected twice a week, and sildenafil was orally administered every day.

[3] = Body weight change in PAH model; settings: MCT + Sildenafil, n = 5
Description: as §3

[4] = target: T1, KRS N-terminal region exposed on the cell membrane (A549 cells, myc-KRS WT/T52D/T52A) (Homo sapiens, UniProt Q15046, T52D); assay: Immunofluorescence of scFv clones on cells with KRS N-terminal region exposed on the cell membrane; format: cell-based; settings: A549 cells expressing myc-KRS T52D (active), T52A (inactive) or WT-KRS (laminin untreated)
T1 construct: expressed in transfected cells; host or cells: A549
Method: (§1) Immunofluorescence was performed to investigate whether the scFv clones selected in Example <1-5> actually bound to the KRS N-terminal region exposed on the cell membrane. In order to make a phenomenon in which KRS is exposed on the membrane, KRS-T52D mutant (active mutant) was used. […] After incubation for 24 h, the cells were incubated using serum-free media (RPMI 1640 media) at 37° C. for 1 h. Thereafter, the cells were treated with 10 μg/ml laminin (L2020; Sigma) and then incubated at 37° C. for 1 h.
(§2) The prepared samples were washed with PBS (4° C.), fixed by the treatment with 4% paraformaldehyde for 10 min, and then washed. The samples were blocked with CAS block for 10 min, and treated with the scFv and Myc antibodies for 2 h. Thereafter, the unbound antibodies were washed out, and incubated with secondary antibodies for 1 h in a dark room. DAPI staining was performed for 10 min before mounting.

KRS N-terminus = target: T2, KRS N-terminus (Homo sapiens, UniProt Q15046); assay: Western blotting of scFv clones against full-length KRS and KRS fragments; format: binding; settings: full-length KRS, fragment lacking N-terminal aa 1-71, fragment aa 1-200; transformed A549 lysate
T2 construct: a KRS fragment composed of amino acid residues 1-200 in the N-terminus; expressed in transfected cells; host or cells: A549
Description: To investigate whether the scFv clones (N3, N5, N7, and N9) finally selected through Example <1-6> actually bound to KRS N-terminus, full-length KRS (denoted by F, SEQ ID NO: 76), a KRS fragment with deletion in amino acids at positions 1-71 in the N-terminus (defined by SEQ ID NO: 1), and a KRS fragment composed of amino acid residues 1-200 in the N-terminus (defined by SEQ ID NO: 2) were used to conduct western blotting.
A549 cells were transformed by the method as described in Example <1-6> using polynucleotides encoding full-length KRS and KRS fragments. Thereafter, the cells were lysed, and western blotting was performed by the same method as described in Example <1-4>.

KRS = target: T3, KRS (Homo sapiens, UniProt Q15046); assay: Western blotting and immunoprecipitation of converted IgGs; format: binding; settings: HCT116 cell lysate
T3 construct: endogenous in cells; host or cells: HCT116

KRS 1-207 aa = target: T4, KRS 1-207 aa (Homo sapiens, UniProt Q15046); assay: SPR (Biacore 2000) binding of IgGs to immobilized KRS; settings: immobilized KRS 185 RU, antibody 6.25-100 nM
T4 construct: to the antigen (KRS 1-207 aa)
Method: The quantitative binding ability of the purified antibody proteins (N3 IgG and N5 IgG) to the antigen (KRS 1-207 aa) were measured using Biacore 2000 SPR (surface plasmon resonance) (GE healthcare, US) biosensor. After KRS was immobilized on a sensor chip (CM5, GE healthcare, US), antibody proteins (6.25-100 nM), which were serially diluted with HES buffer solution (10 mM HEPES, pH 7.4, 150 mM NaCl, 3 mM EDTA, 0.005% surfactant P20), were allowed to flow at a rate of 30 μl/min for 3 min, and 1 M NaCl/20 mM NaOH was allowed to flow at a rate of 30 μl/min for 3 min, thereby inducing the dissociation of proteins bound to the antigen. Mock IgG was used as control. Specific experiment conditions are as follows:
Immobilized level: 185 RU
Antibody: N3 IgG and N5 IgG
Running buffer: HBS-N buffer
Regeneration: 2 M NaCl, 20 mM NaOH (flow 30 ul/min 1 min)
The affinity was obtained from the kinetic rate constants (ka and kd) and equilibrium dissociation constants (KD) by using BIA evaluation ver. 3.2 software. FIGS. 6A-6B show SPR graph results of N3 IgG and N5 IgG, respectively. It was confirmed from FIGS. 6A-6B and Table 3 that N3 IgG and N5 IgG of the present invention has high specific binding ability to the KRS N-terminal region.

[5] = target: T5, extracellularly exposed KRS N-terminal region (Homo sapiens, UniProt Q15046); assay: Immunofluorescence staining of converted IgGs; format: cell-based; settings: WT-KRS membrane localization induced by laminin treatment
T5 construct: expressed in transfected cells; host or cells: A549
Method: as §1, §2
To investigate whether the IgGs constructed in the present invention actually bound to the region of KRS exposed on the cell membrane, immunofluorescence was performed. Immunofluorescence staining was performed by the same method as described in Example <1-6> by using N3 IgG and N5 IgG as representatives.

T1 sequence (Q15046 whole entry T52D): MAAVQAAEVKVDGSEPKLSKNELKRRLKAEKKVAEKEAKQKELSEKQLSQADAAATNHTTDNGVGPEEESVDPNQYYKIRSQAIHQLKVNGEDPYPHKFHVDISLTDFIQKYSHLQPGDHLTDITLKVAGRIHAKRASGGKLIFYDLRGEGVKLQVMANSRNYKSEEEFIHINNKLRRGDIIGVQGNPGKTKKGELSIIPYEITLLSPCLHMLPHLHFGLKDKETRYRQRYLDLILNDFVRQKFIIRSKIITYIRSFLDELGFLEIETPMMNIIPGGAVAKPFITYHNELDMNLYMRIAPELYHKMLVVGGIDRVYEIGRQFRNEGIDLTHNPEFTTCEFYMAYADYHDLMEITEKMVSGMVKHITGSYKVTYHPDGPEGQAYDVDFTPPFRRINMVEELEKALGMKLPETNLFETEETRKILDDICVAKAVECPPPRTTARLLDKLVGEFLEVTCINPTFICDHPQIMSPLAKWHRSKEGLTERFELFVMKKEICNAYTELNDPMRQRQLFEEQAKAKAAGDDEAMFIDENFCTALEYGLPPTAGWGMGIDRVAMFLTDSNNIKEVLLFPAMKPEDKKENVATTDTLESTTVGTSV
T2 sequence (Q15046 1-200): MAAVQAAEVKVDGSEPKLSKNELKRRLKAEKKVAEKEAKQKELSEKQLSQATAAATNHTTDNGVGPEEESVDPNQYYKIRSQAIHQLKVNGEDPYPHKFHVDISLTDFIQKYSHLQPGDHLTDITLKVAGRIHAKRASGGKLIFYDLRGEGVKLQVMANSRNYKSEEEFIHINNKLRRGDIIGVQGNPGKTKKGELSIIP
T4 sequence (Q15046 1-207): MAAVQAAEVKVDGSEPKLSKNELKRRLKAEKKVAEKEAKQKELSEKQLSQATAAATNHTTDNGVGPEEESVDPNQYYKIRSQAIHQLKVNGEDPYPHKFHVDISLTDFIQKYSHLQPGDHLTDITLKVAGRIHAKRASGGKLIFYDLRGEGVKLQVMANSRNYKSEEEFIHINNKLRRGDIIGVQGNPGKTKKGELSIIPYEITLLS
T3 sequence (Q15046 whole entry): as the sequence (Q15046 whole entry T52D) above, with D52T counted along it
T5 sequence (Q15046 whole entry): as the sequence (Q15046 whole entry T52D) above, with D52T counted along it

Molecule: CCCc1nn(C)c2c(=O)[nH]c(-c3cc(S(=O)(=O)N4CCN(C)CC4)ccc3OCC)nc12 [Sildenafil, sildenafil, reference compound]
- CO ([1]; n = 4): 49.6 ± 17.7 mL/min
- LVEDP ([1]; n = 5): 3.6 ± 2.3 mmHg
- LVESP ([1]; n = 5): 83.2 ± 4.7 mmHg
- RVEDP ([1]; n = 5): 2.6 ± 1.3 mmHg
- RVESP ([1]; n = 5): 48.4 ± 9.6 mmHg
- D-shaped left ventricle finding indicating pressure overload in the right ventricle [2]: three
- body weight, absolute change [3]: 104.1 ± 26.4 g
- body weight, relative change [3]: 49.8 ± 10.5%

B2: N5 IgG: IgG converted from N5 scFv; VH SEQ ID NO: 53, VL SEQ ID NO: 55 (antibody, V domains shown)
VH: EVQLLESGGGLVQPGGSLRLSCAASGFTFSDYAMSWVRQAPGKGLEWVSWIYSGSGNKYYADSVKGRFTISRDNSKNTLYLQMNSLRAEDTAVYYCARMGLDFDYWGQGTLVTVSS
VL: QSVLTQPPSASGTPGQRVTISCTGSSSNIGNNYVSWYQQLPGTAPKLLIYDDNQRPSGVPDRFSGSKSGTSASLAISGLRSEDEADYYCGTWDDSLSAYVFGGGTKLTVL
- KRS binding ability (western blotting and immunoprecipitation) (KRS): bound to KRS
- ka (KRS 1-207 aa): 3.13e+06 M⁻¹ s⁻¹
- kd (KRS 1-207 aa): 0.003282 s⁻¹
- binding to extracellularly exposed KRS N-terminal region (immunofluorescence) [5]: favorably bound specifically

B4: N3 scFv: scFv clone consisting of the amino acid sequence defined by SEQ ID NO: 67 (protein)
scFv: EVQLLESGGGLVQPGGSLRLSCAASGFTFSSYDMSWVRQAPGKGLEWVSAISYDNGNTYYADSVKGRFTISRDNSKNTLYLQMNSLRAEDTAVYYSARMALDFDYWGQGTLVTVSSGGGGSGGGGSGGGGSQSVLTQPPSASGTPGQRVTISCTGSSSNIGSNYVTWYQQLPGTAPKLLIYDNSNRPSGVPDRFSGSKSGTSASLAISGLRSEDEADYYCASWDDSLSAYVFGGGTKLTVL
- binding to membrane-exposed KRS N-terminal region (immunofluorescence) [4]: binding only active mutant cells
- specific binding to KRS N-terminus (western blotting) (KRS N-terminus): specifically bound to the KRS N-terminus

Further lines, results first:

- binding to membrane-exposed KRS N-terminal region (immunofluorescence) [4]: binding only active mutant cells
- specific binding to KRS N-terminus (western blotting) (KRS N-terminus): specifically bound to the KRS N-terminus
B1: N5 scFv: scFv clone consisting of the amino acid sequence defined by SEQ ID NO: 69 (protein)
scFv: EVQLLESGGGLVQPGGSLRLSCAASGFTFSDYAMSWVRQAPGKGLEWVSWIYSGSGNKYYADSVKGRFTISRDNSKNTLYLQMNSLRAEDTAVYYCARMGLDFDYWGQGTLVTVSSGGGGSGGGGSGGGGSQSVLTQPPSASGTPGQRVTISCTGSSSNIGNNYVSWYQQLPGTAPKLLIYDDNQRPSGVPDRFSGSKSGTSASLAISGLRSEDEADYYCGTWDDSLSAYVFGGGTKLTVL

- binding to membrane-exposed KRS N-terminal region (immunofluorescence) [4]: binding only active mutant cells
- specific binding to KRS N-terminus (western blotting) (KRS N-terminus): specifically bound to the KRS N-terminus
B3: N7 scFv: scFv clone consisting of the amino acid sequence defined by SEQ ID NO: 71 (protein)
scFv: EVQLLESGGGLVQPGGSLRLSCAASGFTFSDYYMSWVRQAPGKGLEWVSGIYSGTGSIYYADSVEGRFTISRDNSKNTLYLQMNSLRAEDTAVYYSARPPYHFDYWGQGTLVTVSSGGGGSGGGGSGGGGSQSVLTQPPSASGTPGQRVTISCTGSSSNIGSNYVTWYQQLPGTAPKLLIYADSNRPSGVPDRFSGSKSGTSASLAISGLRSEDEADYYCGAWDYSLSGYVFGGGTKLTVL

- binding to membrane-exposed KRS N-terminal region (immunofluorescence) [4]: binding only active mutant cells
- specific binding to KRS N-terminus (western blotting) (KRS N-terminus): specifically bound to the KRS N-terminus
B5: N9 scFv: scFv clone consisting of the amino acid sequence defined by SEQ ID NO: 73 (protein)
scFv: EVQLLESGGGLVQPGGSLRLSCAASGFTFSNYDMSWVRQAPGKGLEWVSWIYSGDSSKYYADSVKGRFTISRDNSKNTLYLQMNSLRAEDTAVYYSARETRTFDYWGQGTLVTVSSGGGGSGGGGSGGGGSQSVLTQPPSASGTPGQRVTISCTGSSFNIGSNAVYWYQQLPGTAPKLLIYYNSQRPSGVPDRFSGSKSGTSASLAISGLRSEDEADYYCGSWDASLSGYVFGGGTKLTVL
